Tests used:
cynomolgus PSMA (ACRO) = target: T1, cynomolgus PSMA (ACRO) (cynomolgus, UniProt A0A2K5VNZ0 44-750); assay: SPR Biacore, immobilised cynomolgus PSMA, 37 C, 1:1 fit
T1 construct: Immobilised on the Biacore chip
Experimental: (§1) PSMA-BsAb Biacore Settings. Human PSMA antigen was immobilized directly on Fc2 at 3000 RU, and cynomolgus PSMA (ACRO) on Fc4 at 3000 RU (Blank on Fc1 and Fc3 as controls). Abs were run through the system at 37° C., at concentrations of 250 and 500 nM, with association time 1 min, dissociation time 15 min. Regeneration was performed at 30 mM NaOH. All data were fitted with 1:1 model.

Human PSMA antigen [1] = target: T2, Human PSMA antigen (human, UniProt Q04609 44-750, limits assumed); assay: SPR Biacore, immobilised human PSMA, 37 C, 1:1 fit
T2 construct: This is the antigen immobilised on the Biacore chip; also called FOLH1_HUMAN
T2 sequence (Q04609 44-750 limits assumed): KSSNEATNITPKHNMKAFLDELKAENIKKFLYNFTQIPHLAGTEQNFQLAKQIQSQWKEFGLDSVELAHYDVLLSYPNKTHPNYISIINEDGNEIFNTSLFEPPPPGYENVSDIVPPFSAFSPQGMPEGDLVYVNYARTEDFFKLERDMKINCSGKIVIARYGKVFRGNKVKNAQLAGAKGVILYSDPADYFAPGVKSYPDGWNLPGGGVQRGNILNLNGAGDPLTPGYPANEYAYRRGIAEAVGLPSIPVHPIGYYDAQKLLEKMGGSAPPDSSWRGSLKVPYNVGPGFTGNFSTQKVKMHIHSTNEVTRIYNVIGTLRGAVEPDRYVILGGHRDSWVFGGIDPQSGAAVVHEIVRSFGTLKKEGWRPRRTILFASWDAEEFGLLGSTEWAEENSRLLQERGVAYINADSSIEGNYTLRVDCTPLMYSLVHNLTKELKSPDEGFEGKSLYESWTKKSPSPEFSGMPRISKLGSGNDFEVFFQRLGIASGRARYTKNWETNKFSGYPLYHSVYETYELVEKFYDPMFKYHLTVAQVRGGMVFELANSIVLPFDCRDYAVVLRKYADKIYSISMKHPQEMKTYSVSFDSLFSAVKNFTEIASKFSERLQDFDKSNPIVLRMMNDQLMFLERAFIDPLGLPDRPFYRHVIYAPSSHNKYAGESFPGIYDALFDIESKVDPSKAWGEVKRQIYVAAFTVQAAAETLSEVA
Experimental: as §1

Human PSMA antigen [2] = target: T2, Human PSMA antigen; assay: SPR (Biacore), 37 C, antibody over immobilized PSMA
From the text: The calculated kinetic parameters derived from SPR are shown in FIG. 4C, showing distinct differences in affinities when compared to the chimeric and the original mouse antibody J591. Increased affinity of anti-PSMA antibodies should translate into higher potency, while lower affinity anti-PSMA antibodies into lower toxicity. This affinity modulation is achieved without altering the CDR sequences. Based on the binding kinetics, the clone having combination of J591_VL-1 and J591_VH-3, which has near identical binding kinetics to those of J591 chimeric antibody, was chosen to build the PSMA-BsAb (BC244) of the present technology. The amino acid sequences of the light chain (SEQ ID NO: 11) and the heavy chain (SEQ ID NO: 12) of the select clone are shown in FIG. 12. Mutation N297A was used to remove glycosylation, and K322A to minimize complement activation.

| Kd (cynomolgus PSMA (ACRO)) | koff (cynomolgus PSMA (ACRO)) | kon (cynomolgus PSMA (ACRO)) | t ½ (cynomolgus PSMA (ACRO)) | Kd (Human PSMA antigen [1]) | koff (Human PSMA antigen [1]) | kon (Human PSMA antigen [1]) | t ½ (Human PSMA antigen [1]) | Kd (Human PSMA antigen [2]) | fold-change KD relative to chimeric (Human PSMA antigen [2]) | koff (Human PSMA antigen [2]) | kon (Human PSMA antigen [2]) | Binder |
| --- | --- | --- | --- | --- | --- | --- | --- | --- | --- | --- | --- | --- |
| 3.58 nM | 0.000634 s⁻¹ | 177000 M⁻¹ s⁻¹ | 18.2 min | 1.6 nM | 0.000308 s⁻¹ | 192000 M⁻¹ s⁻¹ | 37.5 min |  |  |  |  | humanized anti-PSMAxCD3 BsAb BC243 (H2L3) (bispecific antibody, human IgG1, kappa, N297A, IgG(L)-scFv format, J591_VL-3 + J591_VH-2) light: DIVMTQSPSSLSASVGDRVTITCRASQDVGTALDWYQQKPGKAPELLIYWASSLHSGVPSRFRGSGSGTDFTLTISSVQPEDFATYYCQQYNSYPLTFGQGTKLEIKRTVAAPSVFIFPPSDEQLKSGTASVVCLLNNFYPREAKVQWKVDNALQSGNSQESVTEQDSKDSTYSLSSTLTLSKADYEKHKVYACEVTHQGLSSPVTKSFNRGECTSGGGGSGGGGSGGGGSQVQLVQSGGGVVQPGRSLRLSCKASGYTFTRYTMHWVRQAPGKCLEWIGYINPSRGYTNYNQKFKDRFTISRDNSKNTAFLQMDSLRPEDTGVYFCARYYDDHYSLDYWGQGTPVTVSSGGGGSGGGGSGGGGSGGGGSGGGGSGGGGSDIQMTQSPSSLSASVGDRVTITCSASSSVSYMNWYQQTPGKAPKRWIYDTSKLASGVPSRFSGSGSGTDYTFTISSLQPEDIATYYCQQWSSNPFTFGCGTKLQITR heavy: not shown |
| 2.49 nM | 0.000324 s⁻¹ | 130000 M⁻¹ s⁻¹ | 35.7 min | 1.06 nM | 0.000159 s⁻¹ | 150000 M⁻¹ s⁻¹ | 72.7 min |  |  |  |  | humanized anti-PSMAxCD3 BsAb BC245 (H3L3) (bispecific antibody, human IgG1, kappa, N297A, IgG(L)-scFv format, J591_VL-3 + J591_VH-3) light: DIVMTQSPSSLSASVGDRVTITCRASQDVGTALDWYQQKPGKAPELLIYWASSLHSGVPSRFRGSGSGTDFTLTISSVQPEDFATYYCQQYNSYPLTFGQGTKLEIKRTVAAPSVFIFPPSDEQLKSGTASVVCLLNNFYPREAKVQWKVDNALQSGNSQESVTEQDSKDSTYSLSSTLTLSKADYEKHKVYACEVTHQGLSSPVTKSFNRGECTSGGGGSGGGGSGGGGSQVQLVQSGGGVVQPGRSLRLSCKASGYTFTRYTMHWVRQAPGKCLEWIGYINPSRGYTNYNQKFKDRFTISRDNSKNTAFLQMDSLRPEDTGVYFCARYYDDHYSLDYWGQGTPVTVSSGGGGSGGGGSGGGGSGGGGSGGGGSGGGGSDIQMTQSPSSLSASVGDRVTITCSASSSVSYMNWYQQTPGKAPKRWIYDTSKLASGVPSRFSGSGSGTDYTFTISSLQPEDIATYYCQQWSSNPFTFGCGTKLQITR heavy: not shown |
| 6.67 nM | 0.000781 s⁻¹ | 117000 M⁻¹ s⁻¹ | 14.8 min | 2.91 nM | 0.000444 s⁻¹ | 152000 M⁻¹ s⁻¹ | 26 min |  |  |  |  | humanized anti-PSMAxCD3 BsAb BC244a (H2L1) (bispecific antibody, human IgG1, kappa, N297A, IgG(L)-scFv format) light: DIQLTQSPSFLSASVGDRVTITCRASQDVGTALDWYQQKPGKAPKLLIYWASTLHSGVPSRFSGSGSGTEFTLTISSLQPEDFATYYCQQYNSYPLTFGQGTKLEIKRTVAAPSVFIFPPSDEQLKSGTASVVCLLNNFYPREAKVQWKVDNALQSGNSQESVTEQDSKDSTYSLSSTLTLSKADYEKHKVYACEVTHQGLSSPVTKSFNRGECTSGGGGSGGGGSGGGGSQVQLVQSGGGVVQPGRSLRLSCKASGYTFTRYTMHWVRQAPGKCLEWIGYINPSRGYTNYNQKFKDRFTISRDNSKNTAFLQMDSLRPEDTGVYFCARYYDDHYSLDYWGQGTPVTVSSGGGGSGGGGSGGGGSGGGGSGGGGSGGGGSDIQMTQSPSSLSASVGDRVTITCSASSSVSYMNWYQQTPGKAPKRWIYDTSKLASGVPSRFSGSGSGTDYTFTISSLQPEDIATYYCQQWSSNPFTFGCGTKLQITR heavy: not shown |
|  |  |  |  |  |  |  |  | 6.39 nM | 31 fold | 0.000113 s⁻¹ | 17700 M⁻¹ s⁻¹ | murine J591 (antibody, V domains shown, also called original mouse antibody J591; mouse J591) VH: EVQLQQSGPELVKPGTSVRISCKTSGYTFTEYTIHWVKQSHGKSLEWIGNINPNNGGTTYNQKFEDKATLTVDKSSSTAYMELRSLTSEDSAVYYCAAGWNFDYWGQGTTLTVSS VL: DIVMTQSHKFMSTSVGDRVSIICKASQDVGTAVDWYQQKPGQSPKLLIYWASTRHTGVPDRFTGSGSGTDFTLTITNVQSEDLADYFCQQYNSYPLTFGAGTMLDLKR |
|  |  |  |  |  |  |  |  | 3.54 nM | 17.2 fold | 0.000176 s⁻¹ | 49700 M⁻¹ s⁻¹ | huJ591 (J591_VH-2 + J591_VL-1) (antibody, human IgG1, V domains shown, One of the 9 huJ591 versions; Human IgG1 frameworks) VH: QVQLVQSGAEVKKPGASVKVSCKASGYTFTEYTMHWVRQAPGQGLEWMGNINPNNGGTTYNQKFQGRVTMTVDKSISTAYMELSRLRSDDTAVYYCAAGWNFDYWGQGTLVTVSS VL: DIQLTQSPSFLSASVGDRVTITCRASQDVGTALDWYQQKPGKAPKLLIYWASTLHSGVPSRFSGSGSGTEFTLTISSLQPEDFATYYCQQYNSYPLTFGQGTKLEIK |
|  |  |  |  |  |  |  |  | 11.9 nM | 57.8 fold | 0.00057 s⁻¹ | 47900 M⁻¹ s⁻¹ | huJ591 (J591_VH-3 + J591_VL-3) (antibody, human IgG1, V domains shown, One of the 9 huJ591 versions; Human IgG1 frameworks) VH: QVQLVQSGAEVKKPGASVKVSCKASGYTFTEYTMHWVRQAPGQRLEWMGNINPNNGGTTYSQKFQGRVTITVDKSASTAYMELSSLRSEDTAVYYCAAGWNFDYWGQGTLVTVSS VL: DIVMTQSPSSLSASVGDRVTITCRASQDVGTALDWYQQKPGKAPELLIYWASSLHSGVPSRFRGSGSGTDFTLTISSVQPEDFATYYCQQYNSYPLTFGQGTKLEIK |
|  |  |  |  |  |  |  |  | 1.67 nM | 8.1 fold | 9.69e-05 s⁻¹ | 58200 M⁻¹ s⁻¹ | huJ591 clone having combination of J591_VL-1 and J591_VH-3 (antibody, V domains shown, also called the select clone) VH: QVQLVQSGAEVKKPGASVKVSCKASGYTFTEYTMHWVRQAPGQRLEWMGNINPNNGGTTYSQKFQGRVTITVDKSASTAYMELSSLRSEDTAVYYCAAGWNFDYWGQGTLVTVSS VL: DIQLTQSPSFLSASVGDRVTITCRASQDVGTALDWYQQKPGKAPKLLIYWASTLHSGVPSRFSGSGSGTEFTLTISSLQPEDFATYYCQQYNSYPLTFGQGTKLEIKR |
|  |  |  |  |  |  |  |  | 3.32 nM | 16.1 fold | 0.000228 s⁻¹ | 68600 M⁻¹ s⁻¹ | huJ591 (J591_VH-1 + J591_VL-1) (antibody, human IgG1, V domains shown, One of the 9 huJ591 versions made from three heavy and three light chain designs; Human IgG1 frameworks, expressed in CHO cells) VH: QVQLVQSGAEVKKPGASVKVSCKASGYTFTEYTMHWVRQAPGQGLEWMGNINPNNGGTTYAQKFQGRVTMTRDKSISTAYMELSRLRSDDTAVYYCAAGWNFDYWGQGTLVTVSS VL: DIQLTQSPSFLSASVGDRVTITCRASQDVGTALDWYQQKPGKAPKLLIYWASTLHSGVPSRFSGSGSGTEFTLTISSLQPEDFATYYCQQYNSYPLTFGQGTKLEIK |
|  |  |  |  |  |  |  |  | 2.54 nM | 12.3 fold | 0.000146 s⁻¹ | 57400 M⁻¹ s⁻¹ | huJ591 (J591_VH-3 + J591_VL-2) (antibody, human IgG1, V domains shown, One of the 9 huJ591 versions; Human IgG1 frameworks) VH: QVQLVQSGAEVKKPGASVKVSCKASGYTFTEYTMHWVRQAPGQRLEWMGNINPNNGGTTYSQKFQGRVTITVDKSASTAYMELSSLRSEDTAVYYCAAGWNFDYWGQGTLVTVSS VL: DIQLTQSPSFLSASVGDRVTITCRASQDVGTALDWYQQKPGKAPKLLIYWASTRHSGVPSRFSGSGSGTEFTLTISSLQPEDFATYYCQQYNSYPLTFGQGTKLEIK |
|  |  |  |  |  |  |  |  | 4.81 nM | 23.3 fold | 0.000286 s⁻¹ | 59400 M⁻¹ s⁻¹ | huJ591 (J591_VH-2 + J591_VL-2) (antibody, human IgG1, V domains shown, One of the 9 huJ591 versions; Human IgG1 frameworks) VH: QVQLVQSGAEVKKPGASVKVSCKASGYTFTEYTMHWVRQAPGQGLEWMGNINPNNGGTTYNQKFQGRVTMTVDKSISTAYMELSRLRSDDTAVYYCAAGWNFDYWGQGTLVTVSS VL: DIQLTQSPSFLSASVGDRVTITCRASQDVGTALDWYQQKPGKAPKLLIYWASTRHSGVPSRFSGSGSGTEFTLTISSLQPEDFATYYCQQYNSYPLTFGQGTKLEIK |
|  |  |  |  |  |  |  |  | 3.48 nM | 16.9 fold | 0.000211 s⁻¹ | 60600 M⁻¹ s⁻¹ | huJ591 (J591_VH-2 + J591_VL-3) (antibody, human IgG1, V domains shown, One of the 9 huJ591 versions; Human IgG1 frameworks) VH: QVQLVQSGAEVKKPGASVKVSCKASGYTFTEYTMHWVRQAPGQGLEWMGNINPNNGGTTYNQKFQGRVTMTVDKSISTAYMELSRLRSDDTAVYYCAAGWNFDYWGQGTLVTVSS VL: DIVMTQSPSSLSASVGDRVTITCRASQDVGTALDWYQQKPGKAPELLIYWASSLHSGVPSRFRGSGSGTDFTLTISSVQPEDFATYYCQQYNSYPLTFGQGTKLEIK |
|  |  |  |  |  |  |  |  | 3.55 nM | 17.2 fold | 0.000285 s⁻¹ | 80500 M⁻¹ s⁻¹ | huJ591 (J591_VH-1 + J591_VL-3) (antibody, human IgG1, V domains shown, One of the 9 huJ591 versions; Human IgG1 frameworks) VH: QVQLVQSGAEVKKPGASVKVSCKASGYTFTEYTMHWVRQAPGQGLEWMGNINPNNGGTTYAQKFQGRVTMTRDKSISTAYMELSRLRSDDTAVYYCAAGWNFDYWGQGTLVTVSS VL: DIVMTQSPSSLSASVGDRVTITCRASQDVGTALDWYQQKPGKAPELLIYWASSLHSGVPSRFRGSGSGTDFTLTISSVQPEDFATYYCQQYNSYPLTFGQGTKLEIK |
|  |  |  |  |  |  |  |  | 4.86 nM | 23.6 fold | 0.000379 s⁻¹ | 77900 M⁻¹ s⁻¹ | huJ591 (J591_VH-1 + J591_VL-2) (antibody, human IgG1, V domains shown, One of the 9 huJ591 versions; Human IgG1 frameworks) VH: QVQLVQSGAEVKKPGASVKVSCKASGYTFTEYTMHWVRQAPGQGLEWMGNINPNNGGTTYAQKFQGRVTMTRDKSISTAYMELSRLRSDDTAVYYCAAGWNFDYWGQGTLVTVSS VL: DIQLTQSPSFLSASVGDRVTITCRASQDVGTALDWYQQKPGKAPKLLIYWASTRHSGVPSRFSGSGSGTEFTLTISSLQPEDFATYYCQQYNSYPLTFGQGTKLEIK |
